For experiment [1], the target named is β:T238A αβ-tubulin (S. cerevisiae, UniProt P09733 1-447; P02557 1-457, T238A). The experiment is described as follows: AUC.
Experiment [2] has as its target T1, wild-type yeast αβ-tubulin (S. cerevisiae, UniProt P09733 1-447; P02557 1-457).
T1 chain 1: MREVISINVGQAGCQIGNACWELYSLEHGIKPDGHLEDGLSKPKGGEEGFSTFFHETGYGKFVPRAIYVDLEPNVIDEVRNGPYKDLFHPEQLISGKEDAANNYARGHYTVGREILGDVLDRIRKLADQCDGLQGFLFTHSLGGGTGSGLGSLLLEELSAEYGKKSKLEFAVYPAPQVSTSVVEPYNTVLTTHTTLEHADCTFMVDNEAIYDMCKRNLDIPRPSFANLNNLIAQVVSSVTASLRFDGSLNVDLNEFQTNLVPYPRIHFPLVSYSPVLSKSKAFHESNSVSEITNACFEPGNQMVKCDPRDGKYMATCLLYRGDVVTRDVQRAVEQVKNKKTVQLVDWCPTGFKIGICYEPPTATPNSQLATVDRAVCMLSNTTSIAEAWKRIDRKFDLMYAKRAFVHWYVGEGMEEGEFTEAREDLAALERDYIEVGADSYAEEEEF
T1 chain 2: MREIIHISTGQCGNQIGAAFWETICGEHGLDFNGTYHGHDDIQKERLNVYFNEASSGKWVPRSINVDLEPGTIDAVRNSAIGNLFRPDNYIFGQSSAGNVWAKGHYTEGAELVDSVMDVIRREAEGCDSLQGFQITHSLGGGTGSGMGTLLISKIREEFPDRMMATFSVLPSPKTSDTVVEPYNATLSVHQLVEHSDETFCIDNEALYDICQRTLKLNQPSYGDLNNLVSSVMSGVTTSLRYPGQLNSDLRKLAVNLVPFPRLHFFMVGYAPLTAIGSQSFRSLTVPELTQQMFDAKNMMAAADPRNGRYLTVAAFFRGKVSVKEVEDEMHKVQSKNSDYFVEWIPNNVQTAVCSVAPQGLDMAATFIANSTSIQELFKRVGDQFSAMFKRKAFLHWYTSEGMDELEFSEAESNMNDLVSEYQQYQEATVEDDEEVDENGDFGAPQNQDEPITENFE
The experiment is described as follows: AUC.

The target of experiment [3] is T2, β:T238A αβ-tubulin (S. cerevisiae, UniProt P09733 1-447; P02557 1-457, T238A).
T2 construct: Tub1p, α-tubulin of S. cerevisiae; Tub2p, β-tubulin of S. cerevisiae, with T238A made by QuikChange on the wild-type Tub2 expression plasmid; Unpolymerized heterodimer in the AUC; microtubules in the other assays; also called T238A tubulin; β:T238A microtubules
The experiment is described as follows: AUC; sedimentation velocity, 50,000 rpm, 20 °C, absorbance at 229 nm; 0.15 µM T238A αβ-tubulin with 0.015-5 µM TOG1 or TOG2; RB100 (25 mM Tris pH 7.5, 1 mM MgCl2, 1 mM EGTA, 100 mM NaCl) with 20 µM GTP; analysed with SEDFIT and SEDPHAT. The settings on record: both partners purified.

In experiment [4] the target is T3, wild-type yeast αβ-tubulin (S. cerevisiae, UniProt P09733 1-447; P02557 1-457).
T3 construct: Tub1p, α-tubulin of S. cerevisiae; Ayaz et al., 2012; 2014); Tub2p, β-tubulin of S. cerevisiae; Unpolymerized heterodimer in the AUC; polymerised into microtubules in the Bim1-GFP, growth and sedimentation assays; also called WT; wild-type αβ-tubulin
Described as above. As to conditions: both partners purified.

Experiment [5] deals with T2, β:T238A αβ-tubulin. The experiment is described as follows: TIRF microscopy of Bim1-GFP on microtubules; dynamic microtubules grown from sea urchin axonemes in flow chambers with 1 mM GTP; 5 or 50 nM Bim1-GFP in solution; 30 °C. The settings on record: both partners purified.
Experiment [6] deals with T4, β:C354A αβ-tubulin (S. cerevisiae, UniProt P09733 1-447; P02557 1-457, C354A).
T4 construct: Tub1p, α-tubulin of S. cerevisiae; Tub2p, β-tubulin of S. cerevisiae, with C354A (yeast numbering); The making of the C354A plasmid is not described; Used as microtubules; also called β:C354A microtubules
The experiment is described as above. As to conditions: both partners purified.

For experiment [7], the target named is T3, wild-type yeast αβ-tubulin. Described as above. The settings on record: both partners purified.

B1: TOG2(318-560) of Stu2p (domain or fragment, yeast, UniProt P46675 318-560, looked up)
chain: MLPEETILDKLPKDFQERITSSKWKDRVEALEEFWDSVLSQTKKLKSTSQNYSNLLGIYGHIIQKDANIQAVALAAQSVELICDKLKTPGFSKDYVSLVFTPLLDRTKEKKPSVIEAIRKALLTICKYYDPLASSGRNEDMLKDILEHMKHKTPQIRMECTQLFNASMKEEKDGYSTLQRYLKDEVVPIVIQIVNDTQPAIRTIGFESFAILIKIFGMNTFVKTLEHLDNLKRKKIEETVKTL
notes: Stu2p, yeast microtubule polymerase, TOG2 domain, residues 318-560; Plasmid described in Ayaz et al., 2012; 2014; also called Stu2 TOG2 domain
The term Kd denotes the constant that tells how readily two partners part at equilibrium. Low values mean a tighter complex, high ones a looser complex. As to B1, the Kd in experiment [1] was found to be 160 nM; in experiment [2], 180 nM. Moreover, the binding result in experiment [3] and in experiment [4] was “binds” in each case.

B2: Bim1-GFP fusion protein (natural protein, yeast, UniProt P40013 1-344, looked up)
chain: MSAGIGESRTELLTWLNGLLNLNYKKIEECGTGAAYCQIMDSIYGDLPMNRVKFNATAEYEFQTNYKILQSCFSRHGIEKTVYVDKLIRCKFQDNLEFLQWLKKHWIRHKDESVYDPDARRKYRPIITNNSATKPRTVSNPTTAKRSSSTGTGSAMSGGLATRHSSLGINGSRKTSVTQGQLVAIQAELTKSQETIGSLNEEIEQYKGTVSTLEIEREFYFNKLRDIEILVHTTQDLINEGVYKFNDETITGHGNGNGGALLRFVKKVESILYATAEGFEMNDGEDELNDKNLGEHGTVPNQGGYANSNGEVNGNEGSNHDVIMQNDEGEVGVSNNLIIDEETF
notes: Bim1p, the yeast EB1 family protein; C-terminal EGFP-tag followed by a Strep-tag II; also called Bim1p; yeast EB1 protein; source: E. coli BL21(DE3), purified (His60 Superflow column, Strep-Tactin Superflow column); not shown: EGFP, C-terminal, kept
Turning to B2, the binding result in experiment [5], in experiment [6] and in experiment [7] was “binds” each time.

B3: TOG1(1-317) of Stu2p (domain or fragment, yeast, UniProt P46675 1-317, looked up)
chain: MSGEEEVDYTTLPLEERLTYKLWKARLEAYKELNQLFRNSVGDISRDDNIQIYWRDPTLFAQYITDSNVVAQEQAIVALNSLIDAFASSSLKNAHNITLISTWTPLLVEKGLTSSRATTKTQSMSCILSLCGLDTSITQSVELVIPFFEKKLPKLIAAAANCVYELMAAFGLTNVNVQTFLPELLKHVPQLAGHGDRNVRSQTMNLIVEIYKVTGNNSDLLEEILFKKLKPIQVKDLHKLFAKVGDEPSSSKMLFEWEKRELEKKRSQEEEARKRKSILSNDEGEYQIDKDGDTLMGMETDMPPSKQQSGVQIDTFS
notes: Stu2p, yeast microtubule polymerase, TOG1 domain, residues 1-317; Plasmid described in Ayaz et al., 2012; 2014; also called Stu2 TOG1 domain
Take B3: the Kd is 50 nM in experiment [1] and 90 nM in experiment [2]. Further, the binding result in experiment [3] and in experiment [4] was “binds” throughout.
